The text below walks through data of paper PMC11059408, “Atypical heat shock transcription factor HSF5 is critical for male meiotic prophase under non-stress conditions” (Nature Communications, 2023).

Data set [1] addresses T1, HSF5 N-terminal protein (HSF5-DBD) (Mus musculus, UniProt Q5ND04 1-209).
T1 sequence: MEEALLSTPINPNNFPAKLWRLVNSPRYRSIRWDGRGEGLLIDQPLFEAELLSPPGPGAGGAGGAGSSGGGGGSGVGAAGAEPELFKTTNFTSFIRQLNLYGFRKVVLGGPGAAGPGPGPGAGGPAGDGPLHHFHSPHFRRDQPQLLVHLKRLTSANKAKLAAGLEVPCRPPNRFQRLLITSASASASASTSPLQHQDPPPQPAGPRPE
Nature of the data set: EMSA; 0.04 pmol probe, protein/DNA molar ratio 15.6-250; shifts completely abolished; 20 mM Tris-HCl pH 8.0, 100 mM NaCl, 2 mM MgCl2, 10 ul, 25 C, 10 min; 8% polyacrylamide gel in Tris-borate pH 8.3, 2 mM EDTA. The note with it: protein: recombinant; tags: His (pET19b, E. coli; Ni-NTA purified); label: 32P (Klenow, [a-32P]dCTP); 5' overhang 3 nt (AGG) on both strands before Klenow labelling.

The target of data set [2] is T1, HSF5 N-terminal protein (HSF5-DBD). Nature of the data set: competition; 1 uM protein, 0.04 pmol labeled T probe, 1-125 fold excess competitor; did not compete; 20 mM Tris-HCl pH 8.0, 100 mM NaCl, 2 mM MgCl2, 10 ul, 25 C, 10 min; 8% polyacrylamide gel in Tris-borate pH 8.3, 2 mM EDTA. The note with it: protein: recombinant; tags: His (pET19b, E. coli; Ni-NTA purified); 5' overhang 3 nt (AGG) on both strands.

For data set [3] the target is unchanged. Nature of the data set: EMSA; 0.04 pmol probe, protein/DNA molar ratio 15.6-250; three shifted bands; 20 mM Tris-HCl pH 8.0, 100 mM NaCl, 2 mM MgCl2, 10 ul, 25 C, 10 min; 8% polyacrylamide gel in Tris-borate pH 8.3, 2 mM EDTA. The note with it: protein: recombinant; tags: His (pET19b, E. coli; Ni-NTA purified); label: 32P (Klenow, [a-32P]dCTP); 5' overhang 3 nt (AGG) on both strands before Klenow labelling. (In EMSA bound probe runs differently from free probe, usually more slowly.)

Data set [4] shares this target. Nature of the data set: competition; 1 uM protein, 0.04 pmol labeled T probe, 1-125 fold excess competitor; 20 mM Tris-HCl pH 8.0, 100 mM NaCl, 2 mM MgCl2, 10 ul, 25 C, 10 min; 8% polyacrylamide gel in Tris-borate pH 8.3, 2 mM EDTA. The note with it: protein: recombinant; tags: His (pET19b, E. coli; Ni-NTA purified); 5' overhang 3 nt (AGG) on both strands.
Data set [5] deals with the molecule itself. The data set can be described thus: SEC-MALS; after heat treatment at 42 °C for 30 min; 100 μL of MBP-full length HSF5 (12.6 μM) or HSF5-DBD (26.6 μM) injected; PROTEIN KW-803 column; 25 mM HEPES/KOH pH 7.2, 150 mM KCl. In general terms: In gel filtration, larger molecules generally elute earlier.

B1: HSF5-EMSA mutant (M) probe (dsDNA)
DNA 1: AGGGCATAGATAACCTTGAGTCTATCTTGAGTCTATCTTGAAACTACTG
DNA 2: AGGCAGTAGTTTCAAGATAGACTCAAGATAGACTCAAGGTTATCTATGC
With B1, the binding result in data set [1] is recorded as “no binding”.

B2: unlabeled mutant (M) competitor (dsDNA)
DNA 1: AGGGCATAGATAACCTTGAGTCTATCTTGAGTCTATCTTGAAACTACTG
DNA 2: AGGCAGTAGTTTCAAGATAGACTCAAGATAGACTCAAGGTTATCTATGC
As to B2, in data set [2], the binding result was “no binding”.

B3: HSF5-EMSA target (T) probe (dsDNA)
DNA 1: AGGGCATAGATATGGAACTCTCTTAGAACTCTCTTAGAACTTACTACTG
DNA 2: AGGCAGTAGTAAGTTCTAAGAGAGTTCTAAGAGAGTTCCATATCTATGC
With B3, in data set [3], the binding result is “binds”.

B4: unlabeled target (T) competitor (dsDNA)
DNA 1: AGGGCATAGATATGGAACTCTCTTAGAACTCTCTTAGAACTTACTACTG
DNA 2: AGGCAGTAGTAAGTTCTAAGAGAGTTCTAAGAGAGTTCCATATCTATGC
For B4, in data set [4], the binding result is listed as “binds”.

B5: His-MBP-fused full-length HSF5 protein (natural protein, mouse, UniProt Q5ND04 1-624, looked up)
chain: MEEALLSTPINPNNFPAKLWRLVNSPRYRSIRWDGRGEGLLIDQPLFEAELLSPPGPGAGGAGGAGSSGGGGGSGVGAAGAEPELFKTTNFTSFIRQLNLYGFRKVVLGGPGAAGPGPGPGAGGPAGDGPLHHFHSPHFRRDQPQLLVHLKRLTSANKAKLAAGLEVPCRPPNRFQRLLITSASASASASTSPLQHQDPPPQPAGPRPEQHGPVAVGQFHRSFRRDNLSPYSYVSTSSHNHSAFPLKGLDRTPIPPRTWQNSLGMHPGQVETSPTFSDKGVPFPVLQRFPTEVTYTLQPSATSVHVQQGPQTMVSSSQKYSNYTPSAQYSQAYYPTAVLQCCSPPTHMDALSSCVTPTASSYAHCNYFQNPPMQSSYPVEFLPSNWPCSATDENKKTEVNLEAVFQIVDELHSSPKLEMVKVEPVETQCPSSQANRGQHILPNANSSNPSSTSQASQLEPLTPVGSDITSFVVGTEQAITCSLPQSPEYIYTIHTAQPLENSTMQESATIQQTHVKLKEQLNHNPSPSSVVFVQEGLPFSTPQVDSSIKCQTNPSENILPSEQMGFLISEMGPANKSTKDTGLSTPARYRERRSNSQGKSPDLHLLVDVACKQEHFPKEEELKE
notes: Heat shock transcription factor 5 (HSF5), mouse, full length; A tobacco etch virus protease cleavage site lies between His6-MBP and HSF5; the fusion was not cleaved for SEC-MALS; also called MBP-full length HSF5; His-MBP-full length HSF5; source: pMAL-c6T construct, purified (HisTrap HP, gel filtration on Superdex 200 pg 16/600); not shown: His6, N-terminal, kept; MBP, N-terminal, kept
In the case of B5, in data set [5], the binding result is “binds”.
